These results are taken from PMC11313866 (Science Advances, 2024).

In the experiment the target is recombinant S. cerevisiae histone H3-H4 (S. cerevisiae, UniProt P61830 1-136; P02309 1-103). As to the kind of experiment: pull-down.

B1: GST-Pol32^244-350 (domain or fragment)
chain: DKNNDDLEDLLETTAEDSLMDVPKIQQTKPSETEHSKEPKSEEEPSSFIDEDGYIVTKRPATSTPPRKPSPVVKRALSSSKKQETPSSNKRLKKQGTLESFFKRKAK
Consider B1, for which the binding result was “binds”.
